Data: publication PMC10073072 (2023)

Assays:
[1] = biological target: METTL9^M6 (METTL9^46–318 with six mutations) (human, UniProt Q9H1A3 46-318); test: ITC
METTL9^46–318 = METTL9^46–318 (human, UniProt Q9H1A3 46-318); test: ITC
METTL9^46–318, sequence (Q9H1A3 46-318): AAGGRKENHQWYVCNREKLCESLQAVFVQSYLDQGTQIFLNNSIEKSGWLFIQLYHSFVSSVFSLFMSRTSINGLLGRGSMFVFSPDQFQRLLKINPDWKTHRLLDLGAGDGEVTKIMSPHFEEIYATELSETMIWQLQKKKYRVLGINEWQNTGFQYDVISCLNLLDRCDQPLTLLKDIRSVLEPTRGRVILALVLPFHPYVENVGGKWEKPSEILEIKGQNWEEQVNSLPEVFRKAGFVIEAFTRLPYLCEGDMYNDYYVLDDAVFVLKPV

METTL9^M6 (METTL9^46–318 with six mutations), sequence (Q9H1A3 other isoform, or with tags, fused parts or gaps): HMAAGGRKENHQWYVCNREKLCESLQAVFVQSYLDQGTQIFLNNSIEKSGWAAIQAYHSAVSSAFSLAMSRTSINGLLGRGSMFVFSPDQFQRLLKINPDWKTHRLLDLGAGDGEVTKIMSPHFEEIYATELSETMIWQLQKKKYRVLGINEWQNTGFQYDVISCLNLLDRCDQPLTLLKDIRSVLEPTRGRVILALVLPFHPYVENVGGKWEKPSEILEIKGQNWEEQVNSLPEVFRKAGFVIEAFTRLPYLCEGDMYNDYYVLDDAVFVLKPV

| Kd [1] | Kd (METTL9^46–318) | Binder |
| --- | --- | --- |
| 9 µM | 9.3 µM | GHQGHSHGHQGGY [SLC39A5^369–380 peptide] |
| 3.6 µM | 2.3 µM | RGHGHSHGKGC [mouse S100A9^101–111 peptide] |
